Results from patent EP3284477A1, “COMPOSITION COMPRISING SELF-ASSEMBLING PEPTIDES FOR USE IN TREATMENT OF GINGIVITIS, PERIODONTITIS AND/OR PERI-IMPLANTITIS” (Credentis AG, priority 2016, dated 2018).

What was measured:
P. gingivalis = assay: Release of antibiotics from self-assembling peptide gels: impact on bacterial growth (turbidity OD600); type: cell-based; conditions: antibiotic 150 mg/ml released from self-assembling peptide gels (15 mg/ml), anaerobic, OD600 normalized to gel without antibiotic, over 120 hours
Experimental: (§1) The following figures and examples are supposed to illustrate and further explain, but not to limit the invention. Any references cited herein are herewith fully incorporated. • Fig. 1: Bacterial density after release of antibiotics (150 mg/ml) from self-assembling peptide gels (15 mg/ml), and the impact thereof to the growth of P. gingivalis (A-C) and S. sanguinis (D-F). Circles: metronidazol, stars: tetracycline, triangle: ciprofloxacin, squares: doxycycline hyclate; control: gel without API A/D P11-4 gel. B/E P11-13/14 gel. C/F P11-28/29 gel • Fig. 2: Cross section of demineralized tooth after incubation with polymeric P11-4. […] 100µl peptide / well, c= 20 mg/ml, in PBS, quantified with Qubit R Protein Assay Ref: Q33211. […] 100 µl peptide / well, c= 20 mg/ml, in PBS, quantified with Qubit R Protein Assay Ref: Q33211. […] Since NO3- are monovalent ions, and ionic strength of the solution was below 130 mM, P11-8 self-assembling was slowed down. […] The cell/SAP-gel/ dentin was then incubated for 8 days and visually assessed resulting in migration of up to 5 mm. […]
(§2) Furthermore 100 uL/well of a defined anaerobic P. gingivalis or aerobic S. anguines bacterial culture ([…] e.g. 990 µl BHI medium, 10 µl 10^8 CFU/ml bacteria suspension) were added onto the gels. Impact on growth was assessed by measuring turbidity at OD600 nm. […]

S. sanguinis = assay: as above; type: cell-based; conditions: antibiotic 150 mg/ml released from self-assembling peptide gels (15 mg/ml), aerobic, OD600 normalized to gel without antibiotic, over 120 hours
Experimental: as §1, §2

[1] = Stability of P11 peptide gels in absence of cells or bacteria (peptide release into supernatant, Qubit Protein Assay); type: physicochemical; set-up: unit not given here; conditions: 7 days, 100µl peptide / well, c= 20 mg/ml, in PBS
Experimental: (§3) The following figures and examples are supposed to illustrate and further explain, but not to limit the invention. Any references cited herein are herewith fully incorporated. • Fig. 1: Bacterial density after release of antibiotics (150 mg/ml) from self-assembling peptide gels (15 mg/ml), and the impact thereof to the growth of P. gingivalis (A-C) and S. sanguinis (D-F). Circles: metronidazol, stars: tetracycline, triangle: ciprofloxacin, squares: doxycycline hyclate; control: gel without API A/D P11-4 gel. B/E P11-13/14 gel. C/F P11-28/29 gel • Fig. 2: Cross section of demineralized tooth after incubation with polymeric P11-4. […] 100µl peptide / well, c= 20 mg/ml, in PBS, quantified with Qubit R Protein Assay Ref: Q33211. […] 100 µl peptide / well, c= 20 mg/ml, in PBS, quantified with Qubit R Protein Assay Ref: Q33211. […] Since NO3- are monovalent ions, and ionic strength of the solution was below 130 mM, P11-8 self-assembling was slowed down. On the other hand self-assembling kinetic of P11-8 with DMEM and NaCl solution is very similar. […] Human Periodontal Ligament cells were placed in a cell pool (A) and the SAP gel (C) placed on the human dentin (B). The cell/SAP-gel/ dentin was then incubated for 8 days and visually assessed resulting in migration of up to 5 mm. Scale bar: 1 mm

bacteria = assay: Degradation of P11-4 peptide gel in presence of bacteria (Qubit Protein Assay); type: physicochemical; conditions: 100 µl peptide / well, c= 20 mg/ml, in PBS
Experimental: as §3

[2] = Mechanical properties (storage modulus G') of gels in different ion and buffer systems; type: physicochemical; conditions: compared with Tris-NaCl
Experimental: as §3

[3] = test system: Human Periodontal Ligament cells; assay: Cell migration on a periodontal ligament model (cell pool / SAP gel / human dentin); type: cell-based; conditions: 15 mg/ml gel on human dentin, 8 days of incubation, visually assessed
Experimental: as §3

| Compound | inhibition of bacterial growth (relative bacterial density) (P. gingivalis) | inhibition of bacterial growth (relative bacterial density) (S. sanguinis) | release of peptide into the supernatant [1] | stability (time the peptide is stable) (bacteria) | storage modulus G' ([2]; gel formed in DMEM (pH 7.4, ionic strength 130 mM)) | storage modulus G' ([2]; gel formed in artificial saliva (Tris 120 mM, Ca(NO3) 4 mM, KH2PO4 2.4 mM, pH 7.2), DMEM, Tris MgSO4) | migration [3] |
| --- | --- | --- | --- | --- | --- | --- | --- |
| Cc1ncc([N+](=O)[O-])n1CCO [metronidazole] | low effectivity in most systems at this concentration | low effectivity in most systems at this concentration | – | – | – | – | – |
| QQRFEWEFEQQ [P11-4, self-assembling peptide] | – | – | less than one | more than 3 days | lower storage modulus | storage moduli between G'(NaCl and MgSO^4) was reached | up to 5 mm |
